# Laboratory results reported in patent publication US20230002480A1.
# B1: N49P23 (antibody, V domains shown)
# VH: QVRLVQSGAGARKTGASMKLSCSTSGYTFTTHHGHFINWVRQARGQGLEWMGWMNPMTGQMNIEGKFQGRVTLTRDIYSDTAYMEMTRLTTGDTGTYYCARGDFGQNYPFHYWGQGSLVIVSS
# VL: LSALTQPASVSGSPGQSVTISCSGTNRYLVSWYQQHPDKAPKLIIYDDNKRPSGISDRFSASRPDDTASLTISGLQTGDEATYWCASYERFGGGTRLTVLS
# B2: N49P22 (antibody, V domains shown)
# V domain 1: HIQLLQSGPQVKKSGDTVRISCETSGYNFVDSRIHWVRQTPEKRLRWMGWINPLQGGVNYAPEFQGRIRMTRDTFIDTVYVDLSGLTPADTAYYYCARGIDGKSYPFHFWGHGTRVTVFS
# V domain 2: RFALTQPASVSGSPGQTITITCAGGSVSWFHFPPGKTPRLIIYESSKRPSGVSPRFSGSQSGSTASLIISGLQSDDEGTYFCSILEFFGRGTLVTVLS
# Key:
# Experiment in all cases: cell-based or functional assay
# [1] = target: HIV-1 Env of pseudovirus R3265.c06 (HIV-1)
# [2] = target: HIV-1 Env of pseudovirus CAP45.2.00.G3 (HIV-1)
# [3] = target: HIV-1 Env of pseudovirus X2088_c9 (HIV-1)
# [4] = target: HIV-1 Env of pseudovirus ZM135M.PL10a (HIV-1)
# [5] = target: HIV-1 Env of pseudovirus SC422661.8 (HIV-1)
# [6] = target: HIV-1 Env of pseudovirus BJOX028000.10.3 (HIV-1)
# [7] = target: HIV-1 Env of pseudovirus Du422.1 (HIV-1)
# [8] = target: HIV-1 Env of pseudovirus MS208.A1 (HIV-1)
# [9] = target: HIV-1 Env of pseudovirus Du156.12 (HIV-1)
# [10] = target: HIV-1 Env of pseudovirus C3347.c11 (HIV-1)
# [11] = target: HIV-1 Env of pseudovirus Ce704809221_1B3 (HIV-1)
# [12] = target: HIV-1 Env of pseudovirus A07412M1.vrc12 (HIV-1)
# [13] = target: HIV-1 Env of pseudovirus 6545.v4.c1 (HIV-1)
# [14] = target: HIV-1 Env of pseudovirus T278-50 (HIV-1)
# [15] = target: HIV-1 Env of pseudovirus Q769.d22 (HIV-1)
# [16] = target: HIV-1 Env of pseudovirus CNE19 (HIV-1)
# [17] = target: HIV-1 Env of pseudovirus C2101.c01 (HIV-1)
# [18] = target: HIV-1 Env of pseudovirus R1166.c01 (HIV-1)
# [19] = target: HIV-1 Env of pseudovirus Q259.d2.17 (HIV-1)
# [20] = target: HIV-1 Env of pseudovirus 620345.c01 (HIV-1)
# [21] = target: HIV-1 Env of pseudovirus WEAU_d15_410_787 (HIV-1)
# [22] = target: HIV-1 Env of pseudovirus HIV-001428-2.42 (HIV-1)
# [23] = target: HIV-1 Env of pseudovirus HIV-0013095-2.11 (HIV-1)
# [24] = target: HIV-1 Env of pseudovirus 211-9 (HIV-1)
# [25] = target: HIV-1 Env of pseudovirus ZM214M.PL15 (HIV-1)
# [26] = target: HIV-1 Env of pseudovirus Ce703010054_2A2 (HIV-1)
# [27] = target: HIV-1 Env of pseudovirus 263-8 (HIV-1)
# [28] = target: HIV-1 Env of pseudovirus CNE8 (HIV-1)
# [29] = target: HIV-1 Env of pseudovirus 3301.v1.c24 (HIV-1)
# [30] = target: HIV-1 Env of pseudovirus TRJO4551.58 (HIV-1)
# [31] = target: HIV-1 Env of pseudovirus CAP210.2.00.E8 (HIV-1)
# [32] = target: HIV-1 Env of pseudovirus 231965.c01 (HIV-1)
binder,measurement,setting,value
B1,IC50,[1],> 50 µg/mL
same,IC80,[1],> 50 µg/mL
same,MPI,[1],0
same,IC50,[2],> 50 µg/mL
same,IC80,[2],> 50 µg/mL
same,MPI,[2],0
same,IC50,[3],> 50 µg/mL
same,IC80,[3],> 50 µg/mL
same,MPI,[3],10
same,IC50,[4],> 50 µg/mL
same,IC80,[4],> 50 µg/mL
same,MPI,[4],36
same,IC50,[5],0.069 µg/mL
same,IC80,[5],0.245 µg/mL
same,MPI,[5],100
same,IC50,[6],0.021 µg/mL
same,IC80,[6],0.123 µg/mL
same,MPI,[6],98
same,IC50,[7],> 50 µg/mL
same,IC80,[7],> 50 µg/mL
same,MPI,[7],4
same,IC50,[8],0.048 µg/mL
same,IC80,[8],0.279 µg/mL
same,MPI,[8],100
same,IC50,[9],> 50 µg/mL
same,IC80,[9],> 50 µg/mL
same,MPI,[9],0
same,IC50,[10],0.007 µg/mL
same,IC80,[10],0.032 µg/mL
same,MPI,[10],100
same,IC50,[11],0.083 µg/mL
same,IC80,[11],0.643 µg/mL
same,MPI,[11],100
same,IC50,[12],0.114 µg/mL
same,IC80,[12],0.83 µg/mL
same,MPI,[12],97
same,IC50,[13],> 50 µg/mL
same,IC80,[13],> 50 µg/mL
same,MPI,[13],10
same,IC50,[14],> 50 µg/mL
same,IC80,[14],> 50 µg/mL
same,MPI,[14],22
same,IC50,[15],0.005 µg/mL
same,IC80,[15],0.025 µg/mL
same,MPI,[15],100
same,IC50,[16],> 50 µg/mL
same,IC80,[16],> 50 µg/mL
same,MPI,[16],40
same,IC50,[17],0.056 µg/mL
same,IC80,[17],0.362 µg/mL
same,MPI,[17],100
same,IC50,[18],0.123 µg/mL
same,IC80,[18],0.455 µg/mL
same,MPI,[18],100
same,IC50,[19],0.362 µg/mL
same,IC80,[19],7.79 µg/mL
same,MPI,[19],91
same,IC50,[20],> 50 µg/mL
same,IC80,[20],> 50 µg/mL
same,MPI,[20],0
same,IC50,[21],0.009 µg/mL
same,IC80,[21],0.031 µg/mL
same,MPI,[21],100
same,IC50,[22],0.036 µg/mL
same,IC80,[22],0.241 µg/mL
same,MPI,[22],98
same,IC50,[23],0.114 µg/mL
same,IC80,[23],0.899 µg/mL
same,MPI,[23],96
same,IC50,[24],> 50 µg/mL
same,IC80,[24],> 50 µg/mL
same,MPI,[24],14
same,IC50,[25],0.061 µg/mL
same,IC80,[25],0.614 µg/mL
same,MPI,[25],100
same,IC50,[26],> 50 µg/mL
same,IC80,[26],> 50 µg/mL
same,MPI,[26],35
same,IC50,[27],0.012 µg/mL
same,IC80,[27],0.096 µg/mL
same,MPI,[27],100
same,IC50,[28],6.35 µg/mL
same,IC80,[28],47.3 µg/mL
same,MPI,[28],81
same,IC50,[29],0.017 µg/mL
same,IC80,[29],0.058 µg/mL
same,MPI,[29],100
same,IC50,[30],0.016 µg/mL
same,IC80,[30],0.068 µg/mL
same,MPI,[30],100
same,IC50,[31],> 50 µg/mL
same,IC80,[31],> 50 µg/mL
same,MPI,[31],2
same,IC50,[32],> 50 µg/mL
same,IC80,[32],> 50 µg/mL
same,MPI,[32],35
B2,IC50,[1],3.58 µg/mL
same,IC80,[1],> 50 µg/mL
same,MPI,[1],67
same,IC50,[2],> 50 µg/mL
same,IC80,[2],> 50 µg/mL
same,MPI,[2],0
same,IC50,[3],> 50 µg/mL
same,IC80,[3],> 50 µg/mL
same,MPI,[3],8
same,IC50,[4],> 50 µg/mL
same,IC80,[4],> 50 µg/mL
same,MPI,[4],27
same,IC50,[5],0.12 µg/mL
same,IC80,[5],0.544 µg/mL
same,MPI,[5],100
same,IC50,[6],> 50 µg/mL
same,IC80,[6],> 50 µg/mL
same,MPI,[6],0
same,IC50,[7],> 50 µg/mL
same,IC80,[7],> 50 µg/mL
same,MPI,[7],4
same,IC50,[8],> 50 µg/mL
same,IC80,[8],> 50 µg/mL
same,MPI,[8],17
same,IC50,[9],> 50 µg/mL
same,IC80,[9],> 50 µg/mL
same,MPI,[9],4
same,IC50,[10],1.18 µg/mL
same,IC80,[10],12.3 µg/mL
same,MPI,[10],89
same,IC50,[11],15.8 µg/mL
same,IC80,[11],> 50 µg/mL
same,MPI,[11],60
same,IC50,[12],9.6 µg/mL
same,IC80,[12],> 50 µg/mL
same,MPI,[12],63
same,IC50,[13],> 50 µg/mL
same,IC80,[13],> 50 µg/mL
same,MPI,[13],17
same,IC50,[14],> 50 µg/mL
same,IC80,[14],> 50 µg/mL
same,MPI,[14],25
same,IC50,[15],0.043 µg/mL
same,IC80,[15],0.259 µg/mL
same,MPI,[15],100
same,IC50,[16],0.873 µg/mL
same,IC80,[16],8.19 µg/mL
same,MPI,[16],92
same,IC50,[17],0.171 µg/mL
same,IC80,[17],1.06 µg/mL
same,MPI,[17],99
same,IC50,[18],0.232 µg/mL
same,IC80,[18],0.799 µg/mL
same,MPI,[18],100
same,IC50,[19],> 50 µg/mL
same,IC80,[19],> 50 µg/mL
same,MPI,[19],15
same,IC50,[20],> 50 µg/mL
same,IC80,[20],> 50 µg/mL
same,MPI,[20],0
same,IC50,[21],1.54 µg/mL
same,IC80,[21],> 50 µg/mL
same,MPI,[21],76
same,IC50,[22],0.73 µg/mL
same,IC80,[22],7.1 µg/mL
same,MPI,[22],91
same,IC50,[23],> 50 µg/mL
same,IC80,[23],> 50 µg/mL
same,MPI,[23],9
same,IC50,[24],> 50 µg/mL
same,IC80,[24],> 50 µg/mL
same,MPI,[24],18
same,IC50,[25],> 50 µg/mL
same,IC80,[25],> 50 µg/mL
same,MPI,[25],25
same,IC50,[26],> 50 µg/mL
same,IC80,[26],> 50 µg/mL
same,MPI,[26],0
same,IC50,[27],1.83 µg/mL
same,IC80,[27],18.5 µg/mL
same,MPI,[27],89
same,IC50,[28],5.35 µg/mL
same,IC80,[28],40.4 µg/mL
same,MPI,[28],86
same,IC50,[29],2.82 µg/mL
same,IC80,[29],48.8 µg/mL
same,MPI,[29],80
same,IC50,[30],> 50 µg/mL
same,IC80,[30],> 50 µg/mL
same,MPI,[30],28
same,IC50,[31],> 50 µg/mL
same,IC80,[31],> 50 µg/mL
same,MPI,[31],6
same,IC50,[32],2.04 µg/mL
same,IC80,[32],35.2 µg/mL
same,MPI,[32],83
